Test results reported in the supplement of paper PMC7125110.
± gives the standard error. Variants at the floor of the assay were thinned out.

B1: glmS ribozyme (parent)
chain: AUAAAAGCGCCAGAACUACAGAAAUGUAGUUGACGAGGAGGAGGUUUAUCGAAUUUUCGGCGGAUGCCUCCAAA

Assays:
Details in all cases: with glucosamine-6-phosphate
glucosamine-6-phosphate [1] = variants of: B1; assay: self-cleavage kobs at 640 uM GlcN6P; higher = faster cleavage; RNA array
Outline: (§1)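 Barcoded ribozyme variants on sequenced MiSeq chips were transcribed in situ by E. coli RNA polymerase and followed at 37 °C through a hybridised Cy3 probe. Glucosamine-6-phosphate at 40 μM to 10 mM in HEPES/KCl/Mg(OAc)2 buffer was flowed in, and tiles were imaged over ~14 h. Signals were normalised to baseline and to non-cleaving reference variants, and per-tile medians were fit to one- or two-exponential decays to give kobs. Weighted Michaelis–Menten fits across concentrations gave kcat and KM.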

glucosamine-6-phosphate [2] = variants of: B1; assay: self-cleavage kobs at 2500 uM GlcN6P; higher = faster cleavage; RNA array
Outline: as §1

glucosamine-6-phosphate [3] = variants of: B1; assay: self-cleavage kobs at 10000 uM GlcN6P; higher = faster cleavage; RNA array
Outline: as §1

Variant | self-cleavage kobs at 640 uM GlcN6P (glucosamine-6-phosphate [1]) [s⁻¹] | self-cleavage kobs at 2500 uM GlcN6P (glucosamine-6-phosphate [2]) [s⁻¹] | self-cleavage kobs at 10000 uM GlcN6P (glucosamine-6-phosphate [3]) [s⁻¹]
AUAAAAGCGCCAGAACUACAGAAAUGUAGUUGACGAGGAGGAGGUUUAUCGAGAUUUCGGCGUAUGCCUCCAAA [A53G U54A G63U] | < 1e-05 | < 1e-05 | –
AUAAAAGCGCCAGAGAUACAGAAAUGUAGAUGACGAGGAGGAGGUUUAUCGAAUUUUCGGCGGGUGCCUCCAAA [A15G C16A U30A A64G] | 0.000408 ± 0.00011 | 0.00162 ± 0.00041 | –
AUAAAAGCGCCAAAACUACAGAAAUGUAGUUGACGAGGAGGAGGUUUAUCGAAUUUUCAGCAGAUGCCUCCAAA [G13A G59A G62A] | < 1e-05 | – | –
AUAAAAGCGCCAGAACUACAGAAAUGUAGUUGAUGAGGAGGAUGUUUAUCGAGUAUUCGGCGGUUGCCUCCAAA [C34U G43U A53G U55A A64U] | < 1e-05 | < 1e-05 | –
AUAAAAGCGCCAGAACUACAGAAAUGUAGUUGACACGGAGGAGGUUUAUCGAAUUUUCGGGGGGUGCCUCCAAA [G35A A36C C61G A64G] | < 1e-05 | – | –
AUAAAAGCUCCAGAACUACAGAAAUGUAGUUGACCAGGAGGUGGAUUAUCGAAUUUUCGGCGGAUGCCUACAAA [G9U G35C A42U U45A C70A] | < 1e-05 | – | –
AUAAAAGCGACAGAACUACAGAAAUGUAGUUGACGAGGAGGAGGUUUAUCGAAUUUUCGGCGGUUGCCGCCAAA [C10A A64U U69G] | 0.000351 ± 0.00014 | – | –
AUAAAAGCGCCAGAACUACAGAAAUGUAGUUGACGUGGAGGAGGUUUAUCGUAUUUUCGGCGGAUGCCUCCAAA [A36U A52U] | < 1e-05 | < 1e-05 | –
AUAAAAGCACCAGAACUACAGAAAUGUAGUUGACGAGGAGGAGGUUGAGCGAAUUUUCGGCGGAUGCCUCCAAA [G9A U47G U49G] | < 1e-05 | – | –
AUAAAAGCGCCAGAACUACAGAAAUGUAGUUGACGAGGAGGAAGUUUAUCGAAUUUUCGGCGGUUGACUCCAAA [G43A A64U C67A] | < 1e-05 | – | –
AUAAAAUCACCAGUACUACAGAAAUGUAGUUGACGAGGAGGAGGUUUAUCGAAUCUUCGGCGGAUGCCUCCAAA [G7U G9A A14U U55C] | < 1e-05 | – | –
AUAAAAGCGCCAGAACUACAGAAAUGUAGUCGACGAGGAGGAGGUUUAUCGAUUUUUCGGCGGAUGUCUCCAAA [U31C A53U C67U] | 0.000239 ± 6.6e-05 | 0.00045 ± 9.3e-05 | –
AUAAAAGCGCCAGAACUACAGAAAUGUAGUUGACCAGGAAGAGGUGUAUCGAAUUUUCGGCGGAUACCUCCAAA [G35C G40A U46G G66A] | < 1e-05 | < 1e-05 | –
AUAAAUGCGCCAGAACUACAGAAAUGUAGUUGCCGAGGUGGAGGUUUAUCGAAUUUUCGGCGGAUGCCUCUAAA [A6U A33C A39U C71U] | < 1e-05 | – | –
AUAAAAGCGCCGGAACUACAGAAAUGUAGUUGACGAGCAGGAGGUUUAUCGAAUUUUCGGCGGAUGCGUCCAAA [A12G G38C C68G] | < 1e-05 | < 1e-05 | –
AUAAAAGCGCCAGAACUACAGAAAUGUAGUUGACGAGGAGGGGGUUUAUCGAAUCUUCGGCGGAUUCCUCCAAA [A42G U55C G66U] | 0.000398 ± 7.7e-05 | 0.000634 ± 0.00014 | 0.00167 ± 0.00029
AUAAAAGCGCCAGAACUACAGAAAUGUAGUUGACGAGUAGGAUGUUUAUCGAAUUUUCGGCGGACGCGUCGAAA [G38U G43U U65C C68G C71G] | < 1e-05 | – | –
AUAAAAGCACCAGAACUACAGAAAUGUAGUUGACGAGGAGGAGGUUUAUCGAAUUUUCGGCGUAUGCCUUCAAA [G9A G63U C70U] | < 1e-05 | – | –
AUAAAACCGCCAGAAUUACAGAAAUGUAGUUCACGAGGAGGAAGUUUAUUGAAUUUUCGGCGGAUGCCUCCAAA [G7C C16U G32C G43A C50U] | < 1e-05 | – | –
AUAAAAGCGCCAGAACUACAGAAAUGUAGUUGACGAGGAGGAGGUUUAUUGAAUUUUCGGCGGAUGACUCCAAA [C50U C67A] | 6.32e-05 ± 2.1e-05 | – | –
AUAAAAGCGCCAGAACUACAGAAAUGUAGUUGACGAGGAGGAGGUUUAUCUAAUCUUCGGCGGAUGCCUCCAAA [G51U U55C] | < 1e-05 | – | < 1e-05
AUAAAAGCGCCAGAACUACAGAAAUGUAGUUGACGAAGAGGAGGUUUAUUUAAUUUUCGGCGGAUGCCUCCAAA [G37A C50U G51U] | < 1e-05 | < 1e-05 | –
AUAAAAGCGCUAGAACUACAGAAAUGUAUUUGACGAGGAGGAGGUUUAUCGCAUUUUCGGCGGAUGCCUCCAAA [C11U G29U A52C] | < 1e-05 | – | –
AUAAAACCGCUAGAACUACAGAAAUGUAGUUGACGAGGAGGAGGUUUAUCGAAUUUUCUGUGGAUGCCUCCAAA [G7C C11U G59U C61U] | < 1e-05 | – | –
AUAAAGACGCGAGAACUACAGAAAUGUAGUUAACGAGGAGGAGGGUUAUCGAAUUUUCGGCGGAUGCCUCCAAA [A6G G7A C11G G32A U45G] | < 1e-05 | – | –

Variant | self-cleavage kobs at 640 uM GlcN6P (glucosamine-6-phosphate [1]) [s⁻¹] | self-cleavage kobs at 2500 uM GlcN6P (glucosamine-6-phosphate [2]) [s⁻¹] | self-cleavage kobs at 10000 uM GlcN6P (glucosamine-6-phosphate [3]) [s⁻¹]
AUAAAAGAGCCAGAUCUACAGAAAUGUAGUUGACGAGGAGGAGGUUUCUCGAAUUUUCGGCGGAUGCCUCCAAA [C8A A15U A48C] | < 1e-05 | – | –
AUAAAAGCGCCAGAACUACAGAAAUGUAAUUGGCGAGGAGGAGGUUUAUCGAAUUUUCGGCGGAUGCCACCAAA [G29A A33G U69A] | 5.13e-05 ± 2.3e-05 | 4.9e-05 ± 1.9e-05 | –
AUAAAAGCGCCAGAACUACAGAAAUGUAGUUGACGAAGAGGAGGUUUAUCGAAUGUUCGGCGGAUGCCUUCAAA [G37A U55G C70U] | 0.000222 ± 4.2e-05 | 0.000106 ± 3e-05 | –
AUAAAAGCACCUGAACUACAGAAAUGUAGUUGACGAGGAGGAGGUUUAACGAAUUUUCGGCGGAUGCCUCCAAA [G9A A12U U49A] | < 1e-05 | < 1e-05 | –
AUAAAAGCGCCAGAACUACAGAAAUGUAGUUGACGAGUAGGAUGUAUUUCGAAUUUUCGGAGGAUGGCUCCAAA [G38U G43U U46A A48U C61A C67G] | < 1e-05 | – | –
AUAAAAGCGCCAGAACUACAGAAAUGUAGUUGACGAGGAGGAGGUUUAUCGAAUUCUCGGCGGAUCCCUCCAAA [U56C G66C] | 6.26e-05 ± 2.2e-05 | 8.66e-05 ± 2.4e-05 | –
AUAAAAGCGCCAGAACUACAGAAAUGUAGUUAACGCGGAGGAGGUUUAUCGAAUGUUCGGCGGAUGGGUCCAAA [G32A A36C U55G C67G C68G] | 0.000126 ± 3.4e-05 | 4.75e-05 ± 1.2e-05 | –
AUAAACACGCCAGAACUACAGAAAUGUAAUUGACGAGGAGGAGGUUUAUCGAAUUUUCGGCGGAUGCCUCUAAA [A6C G7A G29A C71U] | < 1e-05 | < 1e-05 | –
AUAAAAGCGCCAUAAUUACAGAAAUGUAGUUGCCGAGGAGGAGGUUUAUCGAAUUUUCGGCGGAUGCUUCCAAA [G13U C16U A33C C68U] | < 1e-05 | – | –
AUAAAAGGGCCAGAACUACAGAAAUGUAGUUGACGGGGUGGAUGUUUAUCGAAUUUUCGGCGGAUGCCUCCAAA [C8G A36G A39U G43U] | < 1e-05 | < 1e-05 | –
AUAAAAGCGCCGGAACUACAGAAAUGUAGUUGACGAGGAGGAGGUUUAUCGAAUUUACGUCGGAUGCCUCCAAA [A12G U57A G60U] | < 1e-05 | < 1e-05 | < 1e-05
AUAAAAGCGCCAGAACUACAGAAAUGUAGUUGACGAGGAGGAGGUUUACCGAAUUUUCGGCGCAUGGGUCCAAA [U49C G63C C67G C68G] | < 1e-05 | – | –
AUAAAAGCGCCAGGACUACAGAAAUGUAGUUGACGAGGAGGAGGUUUAUCGAAAUUUAGGCGGAUGCUUCCAAA [A14G U54A C58A C68U] | 9.22e-05 ± 1.9e-05 | 0.000131 ± 2.9e-05 | –
AUAAAAGCGCCAAAACUACAGAAAUGUAGUUGACGAGGAGGAGCUUUAUCGAAGUUUCGGCGGAUGCCUCCAAA [G13A G44C U54G] | < 1e-05 | – | –
AUAAAAGCGCCAGAAAUACAGAAAUGUAGUUGACGAGGAGGAGGUUUAUCGAACUUUCUGCGGAUGCCUCCAAA [C16A U54C G59U] | < 1e-05 | – | –
AUAAAAGAGCCAGAACUACAGAAAUGUACUUGACGCGGAGGAGGUUUAUCGAAUUUUCGGCGAAUGCCUCCAAA [C8A G29C A36C G63A] | < 1e-05 | – | –
AUAAAAGCGCAAGAACUACAGAAAUGUAGUUGACGAGGAGGAGGUCUAUCGAAUUUUCGGCGGAUGCCUCCAAA [C11A U46C] | < 1e-05 | – | –
AUAAAAGCGCCAGAACUACAGAAAUGUAGUUGACGAGGAGGAAGUUAAUCGACUUUUCCGCGGAUGCCUCCAAA [G43A U47A A53C G59C] | < 1e-05 | < 1e-05 | –
AUAAAAGCGCCAGAACUACAGAAAUGUAGUCGACGAGGAGGAGGUUUAUCGAAUUUUCGGCGGAUACAGCCAAA [U31C G66A C68A U69G] | 7.97e-05 ± 4e-05 | 4.91e-05 ± 1.6e-05 | –
AUAAAAGCGCCAGAACUACAGAAAUGUACUUGACGAGGAGGAGGUUUAUCGAGUUUUCGGCGUAUGCCUCCAAA [G29C A53G G63U] | < 1e-05 | – | –
AUAAAAGAGCCAGAAUUACAGAAAUGUAGUUGACGAGAAGGAGGUUUAUCGAAUUUUCGGCGGAUGCCUCCAAA [C8A C16U G38A] | < 1e-05 | – | < 1e-05
AUAAAAGCUCCAGAACUACAGAAAUGUAGUUGACGAGGAGGAGGUUAAUCGAAUUUUCGGCGGAUGCCUCCAAA [G9U U47A] | < 1e-05 | < 1e-05 | –
AUAAACGCGCCACAACUACAGAAAUGUAGUUGACGAGGAGGAGGUUGUUCGAAUUUUCGGCGGAAGCCUCCAAA [A6C G13C U47G A48U U65A] | < 1e-05 | – | –
AUAAAAGCGCCGGAACUACAGAAAUGUAGUUGACGAGGCGUAGGUUAUUCGAAUUUUCGGUGGUUGCCUCCAAA [A12G A39C G41U U47A A48U C61U A64U] | < 1e-05 | < 1e-05 | –
